Data: the DeepSol protein solubility set

test: soluble on expression in E. coli; label from the status in PepcDB or PDB records

Q: With “MKKVTAMLFSMAVGLNAVSMAAKAKASEEQETDVLLIGGGIMSATLGTYLRELEPEWSMTMVERLEGVAQESSNGWNNAGTGHSALMELNYTPQNADGSISIEKAVAINEAFQISRQFWAHQVERGVLRTPRSFINTVPHMSFVWGEDNVNFLRARYAALQQSSLFRGMRYSEDHAQIKEWAPLVMEGRDPQQKVAATRTEIGTDVNYGEITRQLIASLQKKSNFSLQLSSEVRALKRNDDNTWTVTVADLKNGTAQNIRAKFVFIGAGGAALKLLQESGIPEAKDYAGFPVGGQFLVSENPDVVNHHLAKVYGKASVGAPPMSVPHIDTRVLDGKRVVLFGPFATFSTKFLKNGSLWDLMSSTTTSNVMPMMHVGLDNFDLVKYLVSQVMLSEEDRFEALKEYYPQAKKEDWRLWQAGQRVQIIKRDAEKGGVLRLGTEVVSDQQGTIAALLGASPGASTAAPIMLNLLEKVFGDRVSSPQWQATLKAIVPSYGRKLNGDVAATERELQYTSEVLGLNYDKPQAADSTPKPQLKPQPVQKEVADIAL” as the sequence, how does the “soluble on expression in E. coli” value read?
A: not soluble

Q: Which “soluble on expression in E. coli” value does the source give for “AMAISDPQSSTRNELETGSSSACPKVIYIFARASTEPGNMGISAGPIVADALERIYGANDVWVQGVGGPYLADLASNFLPDGTSSAAINEARRLFTLANTKCPNAAIVSGGYSQGTAVMAGSISGLSTTIKNQIKGVVLFGYTKNLQNLGRIPNFETSKTEVYCDIADAVCYGTLFILPAHFLYQTDAAVAAPRFLQARIG” here?
A: soluble

Q: With “MAGDPMTIYEQHFIFSDRIVPIRVRENKYARRLILRIDARGREICVTTPPAINLYSIQGFIAKHQSWIEARLARVQIAHANSYLKEGTKIPLLGIPHTIQRKEGRGITEIVAGDVRQEPKIVVYGQLEYLPRRIADVLKKQAALIITPLVKCYARKVERKVKSICYKDTKSRWGSCSIHGNLSFSWRLVMAPQEVIEYVVAHEVAHLIEMNHGPKFWALCEKLCPKSEAYRTWLKENGHMLQAVNFHSYRLEILEHHHHHH” as the sequence, how does the “soluble on expression in E. coli” value read?
A: soluble

Q: Which “soluble on expression in E. coli” value does the source give for “RNMDASPLAKRNSLQLFTDGQEKFQALFEDIRAAKETVHVEYYAFFNDTIGNQFLDVLIEKLHEGVEVYLIYDPWGSPGANKKFFARYVDAGGKVAPFITSRDMIRKTRLNYHLHRKIVVIDGKIGWTGGFNVGDQYLNVTEKFGYWRDTHIRLVGTAVFSLQEIFIMDWNASVKYPEERMTYHEKYFKLPEDHEVEHLSLQVVSDGPDSEEEILKSG” here?
A: not soluble

Q: Which “soluble on expression in E. coli” value does the source give for “MNKYFYDGTPEGLVSAIGAILESGDDPEQTVLSIRQDTLFEEGLFLRTDSAVAEALFQRLRERAPDAVQTLWYFTMTEVDGLATSLLRYIALAFEHGDQVNGYLTHPDVKAVVATARKVGRELHRMKGLLRFEQLRDGTWLARMEPDHNVIQPLARHFSRRLRTQEWFIYDARRHSAAHWDGHALSFGTLERFSRPELSPEERVMQQLWQTFFKTIAIPERKNPRLQQSNMPAKYWKYLTEKQGE” here?
A: not soluble

Q: Which “soluble on expression in E. coli” value does the source give for “MADVLERVTKIIVDRLGVEETEVVPAASFKEDLGADSLDVVELVMQLEDEFEMEISDEDAEKIATVGDAVTYIESHL” here?
A: not soluble

Q: Which “soluble on expression in E. coli” value does the source give for “MGSDKIHHHHHHAYFFNVAFVPGQKSVLNKYSSKKKKDPFAQNKKWYADAKKEQWYIKSASSNYCLDANYIPKKNSHKTAVLLHGFMNNKDTMAPYAAMFHQLGYNVLIPDARAHGKSQGKYIGYGWPEKYDVQKWVKKDIAEKGKKQKIVIFGVSMGGATTMMTSGLKMPKQVKAYIEDCGYTDVKSEFLYEAKDIYKMPKLVASSAVAILSGVSKANLGFYLGDASAVNQLKKNKLPMMFIHGSKDNFVPTKMVYQNYKATNGPKELWIAEKAAHARSFETYPREYKARVSKFLNKYV” here?
A: not soluble

Q: With “MSKTAIIFPGQGAQKVGMAQDLFNNNDQATEILTSAANTLDFDILETMFTDEEGKLGETENTQPALLTHSSALLAALKNLNPDFTMGHSLGEYSSLVAADVLSFEDAVKIVRKRGQLMAQAFPTGVGSMAAVLGLDFDKVDEICKSLSSDDKIIEPANINCPGQIVVSGHKALIDELVEKGKSLGAKRVMPLAVSGPFHSSLMKVIEEDFSSYINQFEWRDAKFPVVQNVNAQGETDKEVIKSNMVKQLYSPVQFINSTEWLIDQGVDHFIEIGPGKVLSGLIKKINRDVKLTSIQTLEDVKGWNEND” as the sequence, how does the “soluble on expression in E. coli” value read?
A: not soluble

Q: With “MAERETYADFSVVEKQRNFLTAEEFPEGPYGSPRRDDAPVENKSTPWKEGQRHYSAFNYEFKSFHQNIPRRDPAAHPPHDDPHQSEQFPYNEGE” as the sequence, how does the “soluble on expression in E. coli” value read?
A: not soluble

Q: For “MGSDKIHHHHHHMEYTSLIFPGDKIDIFASGLSDNSTSYKSSFSDKLTDSMWEITMPVDSGRVVLFQLGTQFDFIIYTQNKTILKSSAIVRQRYRKENMYFLAIELINNLEKIQRRQFFRLPCTIDMDFYEVRYDDKAESELEFCKKMYKNHAINSKNMNTVKSVILDISGGGIRFSLSTPLEEGTYFMAQFSLALEECTQQFNIVCKVINCTQSLDYADRYFARSKFIFDRMTEREKIVRFVFEEERRIRRREME”, which “soluble on expression in E. coli” value is on record?
A: not soluble

Q: With “QYRIIDFKRDKDGIPGRVATIEYDPNRSANIALINYADGEKRYIIAPKNLKVGMEIMSGPDADIKIGNALPLENIPVGTLVHNIELKPGRGGQLVRAAGTSAQVLGKEGKYVIVRLASGEVRMILGKCRATVGEVGN” as the sequence, how does the “soluble on expression in E. coli” value read?
A: soluble

Q: With “MFFSALKSFLSRYITVWRNVWAVRDQLKPPKRTAEEQAFLPAHLELTDTPVSAAPKWAARFIMAFALLALLWSWFGKIDIVAAASGKTVSGGRSKTIQPLETAVVKAVHVRDGQHVKQGETLAELEAVGTDSDVVQSEQALQAAQLSKLRYEAVLAALESRTVPHIDMAQARSLGLSDADVQSAQVLAQHQYQAWAAQDAQLQSALRGHQAELQSAKAQEQKLVSVGAIEQQKTADYRRLRADNFISEHAFLEQQSKSVSNWNDLESTRGQMRQIQAAIAQAEQNRVLNTQNLKRDTLDALRQANEQIDQYRGQTDKAKQRQQLMTIQSPADGTVQELATYTVGGVVQAAQKMMVIAPDDDKMDVEVLVLNKDIGFVEQGQDAVVKIESFPYTRYGYLTGKVKSVSHDAVSHEQLGLVYTAVVSLDKHTLNIDGKAVNLTAGMNVTAEIKTGKRRVLDYLLSPLQTKLDESFRER” as the sequence, how does the “soluble on expression in E. coli” value read?
A: not soluble

Q: Which “soluble on expression in E. coli” value does the source give for “SQPIATQELQLGDELANKAFAATNRGDFVAAEDYWTQIIEKFPINAGAWINRGNSRVSQNKLEAALTDYNKAIELAPNLTDPYLNRGTALEGLGKWEDAIADYNYVLALDPNDAMAYNNRGNAKTGLGKWEDAISDYQKATAIAPNFAFARANYALALYETGQTDKAIREMRNIVRKYPKFADMRAALTAAYWVGGQKGEAESNWVAAYGLDTRYKDMDWVTNIRRWPPSMVAALDKFLKLN” here?
A: soluble

Q: Which “soluble on expression in E. coli” value does the source give for “MKEKGGDSLKYCYQCGLCDSVCPWNRVRQFSMRKIVRQGTFGLTEIEQEDIWRCSTCGTCPSRCPRGVNQIEAGVAMRRIGAEYDVYPGHVGTIRNVVASLTSEGNSLEHHHHHH” here?
A: not soluble

Q: Which “soluble on expression in E. coli” value does the source give for “MTGSTETRQKEVKEPQVDVSDDSDNEAVEQELTEEQRRVAEAAGLGDHIDKQAKQSRSEKKARKLFSKLGLKQVTGVSRVCIRKSKNILFVINKPDVFKSPGSDTYIIFGEAKIEDLTQHAQMSAIENLKPTREAPQLKTVEEDENEDVEEDSTGIEEKDIELVISQANTTRNKAIRALKEADNDIVNAIMSLTM” here?
A: soluble

Q: With “MIKEKYTFDDLVEIMKILRSENGCPWDRVQNHESLKKYLIEETYEVLEVIDLNDKKRLCEELGDLLLQIVFHAQIASEDNEFDINDVITGICRKMVQRHTHVFGTDKADTAEEVLANWEEIKKKEKGMESQTEVLKSVPSNLPALMRSYKVQQKASQVGFDWKDIDSVFEKVYEEINELRDVYKSKDVERINDELGDVLFSIVNLSRFLKVQPELALMGSVNKFIERFEFIEKEAAKSGRTLSEMSLDEMDELWNKAKTKI” as the sequence, how does the “soluble on expression in E. coli” value read?
A: soluble
